Assay results taken from patent publication US20170015742A1 (published 2017).
Changes are numbered by the printed parent chain.

B1: CODV012 (bispecific antibody, human IgG1, kappa, L234A L235A)
heavy: EVQLVQSGSELKKPGASVKVSCKASGYTFTNYGMYWVRQAPGQGLEWMGWINTETGKPTYADDFKGRFVFSLDTSVSTAYLQISSLKAEDTAVYYCARTNYYYRSYIFYFDYWGQGTMVTVSSGGGGSGGGEFVLTQSPGTLSLSPGERATLSCERSSGDIGDSYVSWYQQKPGQAPRLVIYADDQRPSGIPDRFSGSGSGTDFTLTISRLEPEDFAVYYCQSYDINIDIVFGGGTKVEIKGGGSGASTKGPSVFPLAPSSKSTSGGTAALGCLVKDYFPEPVTVSWNSGALTSGVHTFPAVLQSSGLYSLSSVVTVPSSSLGTQTYICNVNHKPSNTKVDKKVEPKSCDKTHTCPPCPAPEAAGGPSVFLFPPKPKDTLMISRTPEVTCVVVDVSHEDPEVKFNWYVDGVEVHNAKTKPREEQYNSTYRVVSVLTVLHQDWLNGKEYKCKVSNKALPAPIEKTISKAKGQPREPQVYTLPPSREEMTKNQVSLTCLVKGFYPSDIAVEWESNGQPENNYKTTPPVLDSDGSFFLYSKLTVDKSRWQQGNVFSCSVMHEALHNAYTQKSLSLSPGK
light: EVTLRESGPALVKPTQTLTLTCTFSGFSLSTYGMGVGWIRQPPGKALEWLANIWWDDDKYYNPSLKNRLTISKDTSKNQVVLTMTNMDPVDTATYYCARIESIGTTYSFDYWGQGTMVTVSSGGGGSGGGDTVLTQSPATLSLSPGERATLSCRASESVSTHMHWYQQKPGQAPRLLIYGASNLESGVPARFSGSGSGTDFTLTISSLEPEDFAVYFCQQSWNDPFTFGQGTKLEIKGGGSGRTVAAPSVFIFPPSDEQLKSGTASVVCLLNNFYPREAKVQWKVDNALQSGNSQESVTEQDSKDSTYSLSSTLTLSKADYEKHKVYACEVTHQGLSSPVTKSFNRGEC
notes: Anti-human VEGF-A/anti-human PDGF-BB cross-over DVD-Ig (CO-DVD-Ig); also called PR-1571824
B2: CODV014 (bispecific antibody, human IgG1, kappa, L234A L235A)
heavy: EVQLVQSGSELKKPGASVKVSCKASGYTFTNYGMYWVRQAPGQGLEWMGWINTETGKPTYADDFKGRFVFSLDTSVSTAYLQISSLKAEDTAVYYCARTNYYYRSYIFYFDYWGQGTMVTVSSGGGGSEFVLTQSPGTLSLSPGERATLSCERSSGDIGDSYVSWYQQKPGQAPRLVIYADDQRPSGIPDRFSGSGSGTDFTLTISRLEPEDFAVYYCQSYDINIDIVFGGGTKVEIKGGSASTKGPSVFPLAPSSKSTSGGTAALGCLVKDYFPEPVTVSWNSGALTSGVHTFPAVLQSSGLYSLSSVVTVPSSSLGTQTYICNVNHKPSNTKVDKKVEPKSCDKTHTCPPCPAPEAAGGPSVFLFPPKPKDTLMISRTPEVTCVVVDVSHEDPEVKFNWYVDGVEVHNAKTKPREEQYNSTYRVVSVLTVLHQDWLNGKEYKCKVSNKALPAPIEKTISKAKGQPREPQVYTLPPSREEMTKNQVSLTCLVKGFYPSDIAVEWESNGQPENNYKTTPPVLDSDGSFFLYSKLTVDKSRWQQGNVFSCSVMHEALHNAYTQKSLSLSPGK
light: B1 light
notes: Anti-human VEGF-A/anti-human PDGF-BB cross-over DVD-Ig (CO-DVD-Ig); also called PR-1571826
B3: CODV015 (bispecific antibody, human IgG1, kappa, L234A L235A)
heavy: B1 heavy
light: EVTLRESGPALVKPTQTLTLTCTFSGFSLSTYGMGVGWIRQPPGKALEWLANIWWDDDKYYNPSLKNRLTISKDTSKNQVVLTMTNMDPVDTATYYCARIESIGTTYSFDYWGQGTMVTVSSGGGGSGGGDTVLTQSPATLSLSPGERATLSCRASESVSTHMHWYQQKPGQAPRLLIYGASNLESGVPARFSGSGSGTDFTLTISSLEPEDFAVYFCQQSWNDPFTFGQGTKLEIKGGSRTVAAPSVFIFPPSDEQLKSGTASVVCLLNNFYPREAKVQWKVDNALQSGNSQESVTEQDSKDSTYSLSSTLTLSKADYEKHKVYACEVTHQGLSSPVTKSFNRGEC
notes: Anti-human VEGF-A/anti-human PDGF-BB cross-over DVD-Ig (CO-DVD-Ig); also called PR-1571827
B4: CODV021 (bispecific antibody, human IgG1, kappa, L234A L235A)
heavy: B1 heavy with D163E
light: B3 light
notes: Anti-human VEGF-A/anti-human PDGF-BB cross-over DVD-Ig (CO-DVD-Ig); also called PR-1577053
B5: CODV016 (bispecific antibody, human IgG1, kappa, L234A L235A)
heavy: B1 heavy
light: EVTLRESGPALVKPTQTLTLTCTFSGFSLSTYGMGVGWIRQPPGKALEWLANIWWDDDKYYNPSLKNRLTISKDTSKNQVVLTMTNMDPVDTATYYCARIESIGTTYSFDYWGQGTMVTVSSGGGGSDTVLTQSPATLSLSPGERATLSCRASESVSTHMHWYQQKPGQAPRLLIYGASNLESGVPARFSGSGSGTDFTLTISSLEPEDFAVYFCQQSWNDPFTFGQGTKLEIKGGSRTVAAPSVFIFPPSDEQLKSGTASVVCLLNNFYPREAKVQWKVDNALQSGNSQESVTEQDSKDSTYSLSSTLTLSKADYEKHKVYACEVTHQGLSSPVTKSFNRGEC
notes: Anti-human VEGF-A/anti-human PDGF-BB cross-over DVD-Ig (CO-DVD-Ig); also called PR-1571828
B6: CODV017 (bispecific antibody, human IgG1, kappa, L234A L235A)
heavy: DTVLTQSPATLSLSPGERATLSCRASESVSTHMHWYQQKPGQAPRLLIYGASNLESGVPARFSGSGSGTDFTLTISSLEPEDFAVYFCQQSWNDPFTFGQGTKLEIKGGGSGGGEFVLTQSPGTLSLSPGERATLSCERSSGDIGDSYVSWYQQKPGQAPRLVIYADDQRPSGIPDRFSGSGSGTDFTLTISRLEPEDFAVYYCQSYDINIDIVFGGGTKVEIKGGGSGASTKGPSVFPLAPSSKSTSGGTAALGCLVKDYFPEPVTVSWNSGALTSGVHTFPAVLQSSGLYSLSSVVTVPSSSLGTQTYICNVNHKPSNTKVDKKVEPKSCDKTHTCPPCPAPEAAGGPSVFLFPPKPKDTLMISRTPEVTCVVVDVSHEDPEVKFNWYVDGVEVHNAKTKPREEQYNSTYRVVSVLTVLHQDWLNGKEYKCKVSNKALPAPIEKTISKAKGQPREPQVYTLPPSREEMTKNQVSLTCLVKGFYPSDIAVEWESNGQPENNYKTTPPVLDSDGSFFLYSKLTVDKSRWQQGNVFSCSVMHEALHNAYTQKSLSLSPGK
light: EVTLRESGPALVKPTQTLTLTCTFSGFSLSTYGMGVGWIRQPPGKALEWLANIWWDDDKYYNPSLKNRLTISKDTSKNQVVLTMTNMDPVDTATYYCARIESIGTTYSFDYWGQGTMVTVSSGEVQLVQSGSELKKPGASVKVSCKASGYTFTNYGMYWVRQAPGQGLEWMGWINTETGKPTYADDFKGRFVFSLDTSVSTAYLQISSLKAEDTAVYYCARTNYYYRSYIFYFDYWGQGTMVTVSSGGRTVAAPSVFIFPPSDEQLKSGTASVVCLLNNFYPREAKVQWKVDNALQSGNSQESVTEQDSKDSTYSLSSTLTLSKADYEKHKVYACEVTHQGLSSPVTKSFNRGEC
notes: Anti-human VEGF-A/anti-human PDGF-BB cross-over DVD-Ig (CO-DVD-Ig); also called PR-1571830

These binders were tested against T1, Human VEGF-A 165 (human, UniProt P15692 207-395) (assay: SPR (Biacore), method of Example 1.1).
T1 construct: also called hVEGF165
T1 sequence (P15692 other isoform, or with tags, fused parts or gaps limits assumed): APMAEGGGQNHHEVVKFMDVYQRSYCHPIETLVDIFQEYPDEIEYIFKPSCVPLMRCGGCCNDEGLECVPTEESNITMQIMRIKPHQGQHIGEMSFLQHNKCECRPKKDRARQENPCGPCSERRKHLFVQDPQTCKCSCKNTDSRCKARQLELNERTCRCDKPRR
Experimental: (§1) Unreacted moieties on the biosensor surface were blocked with ethanolamine. For kinetic analysis, rate equations derived from the 1:1 Langmuir binding model were fitted simultaneously to multiple antigen injections (using global fit analysis) with the use of Scrubber 2 (BioLogic Software), Biacore Biaevaluation 4.0.1 software or Biacore T100 Evaluation software. Purified antibodies or DVD-Ig molecules were diluted in running buffer for capture across goat anti-human Fc reaction surfaces. Antibodies or DVD-Ig molecules to be captured as a ligand (1 μg/ml) were injected over reaction matrices at a flow rate of 10 μl/minute. During the assay, all measurements were referenced against the capture surface alone (i.e., with no captured antibody or DVD-Ig molecule). […] The equilibrium dissociation constant KD (M) of the reaction between antibodies and the target antigen was then calculated from the kinetic rate constants by the following formula: KD=Koff/Kₒₙ. Binding was recorded as a function of time and kinetic rate constants were calculated. In this assay, on-rates as fast as 10⁶M⁻¹s⁻¹ and off-rates as slow as 10⁻⁶ s⁻¹ could be measured.
B1 was tested, and the Kd was 28 pM and the kon was 2.7e+06 M⁻¹ s⁻¹. B2 gave a Kd of 36 pM and a kon of 2.2e+06 M⁻¹ s⁻¹. B3 gave a Kd of 24 pM and a kon of 2.7e+06 M⁻¹ s⁻¹. With B4 the Kd was 18 pM and the kon was 3.8e+06 M⁻¹ s⁻¹. B5 showed a Kd of 20 pM and a kon of 2.9e+06 M⁻¹ s⁻¹. B6 was tested, and the Kd was 57000 pM.

These binders were tested against T2, Human PDGF-BB (human, UniProt P01127 82-190) (assay: SPR (Biacore), method of Example 1.1).
T2 construct: also called hPDGF-BB
T2 sequence (P01127 82-190 limits assumed): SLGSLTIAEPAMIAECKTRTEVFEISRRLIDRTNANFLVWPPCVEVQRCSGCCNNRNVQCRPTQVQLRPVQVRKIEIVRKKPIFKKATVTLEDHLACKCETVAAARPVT
Experimental: as §1
For B1, the Kd was 1.5 pM and the kon was 7e+07 M⁻¹ s⁻¹. B2 was tested, and the Kd was 2.4 pM and the kon was 5.5e+07 M⁻¹ s⁻¹. In the case of B3, the Kd is reported as 1.3 pM and the kon is reported as 7e+07 M⁻¹ s⁻¹. B4 gave a Kd of 1.9 pM and a kon of 6.1e+07 M⁻¹ s⁻¹. Binder B5 has a Kd of 2.5 pM and a kon of 4.6e+07 M⁻¹ s⁻¹. B6 gave a Kd of 6.5 pM and a kon of 3e+07 M⁻¹ s⁻¹.
